Experiment [1] has as its system adult females of M. incognita. The experiment is described as follows: Light microscopy of Meloidogyne adult female worms incubated with papain. The experiment is classed as cell-based. Further details: digestion of the cuticle of adult females: dose or concentration left out as unconfirmed. Here is the method: To assess whether these enzymes also affected the cuticles of other stages of the nematodes, five adult females of M. […], prepared in 16 mM L-cysteine dissolved in phosphate buffered saline (PBS), pH 7.4, or PBS, pH 7.4 with and without 16 mM L-cysteine. These nematodes were incubated in the dark at ambient temperature for 4 h and were then examined using a light microscope at ×10 and ×20 magnification to observe any differences to the nematode body wall.

Another experiment has as its system M. incognita J2. The experiment is described as follows: In vitro live/dead count of M. incognita J2 in solution without soil (Example 2). The experiment is classed as cell-based. Conditions: after 40 hs of observation, at the nematicidal concentration. Here is the method: Eggs of M. incognita race 1 from North Carolina State University, USA were collected from tomato-infected roots grown in a glasshouse at 23° C. in a 16:8 h light-dark regime. Eggs were extracted using 1% hypochlorite (NaClO) solution (Hussey and Barker, 1973) or by picking egg masses from tomato-infected roots. Juveniles (J2) were hatched from the eggs and egg masses in water. Heterodera glycines eggs were obtained from soil samples stored in Rothamsted-Research. Second stage juveniles (J2) were hatched from the eggs in water after 10 days. Pratylenchus penetrans were a gift from Dr. Deeren Anne-Marie from the Institute for Agricultural and Fisheries Research, Merelbeke, Belgium. The beneficial nematodes Steinernema feltiae and Heterorhabditis megidis were a gift from Dr. Paul Williams from Becker Underwood. […]
Control wells were set up which contained J2s and distilled water with 16 mM L-cysteine. […] The actual number of active J2s per well was counted with the aid of an Olympus inverted microscope, prior to the addition of the enzymes, and then the J2s were incubated in the dark at room temperature for 2 hs, 16 hs, 24 hs or 40 hr. The number of live and dead J2s per well was counted after each enzyme incubation. […]

In the next experiment the test system is Meloidogyne spp. J2s. Description: In vitro mobility of Meloidogyne spp. J2s exposed to plant cysteine proteinases. The experiment is classed as cell-based, M. incognita or M. javanica. Here is the method: Eggs of M. incognita race 1 from North Carolina State University, USA, and M. javanica from Portugal were collected from the roots of infected tomato plants grown in a glasshouse at 23° C. in a 16:8 h light-dark regime. Eggs were extracted using 1% hypochlorite (NaClO) solution (Hussey and Barker, 1973) or by picking egg masses from the infected roots. M. incognita and M. javanica were both used in the experiments and produced similar results. Juveniles (J2) were hatched from the eggs and egg masses in water. Globodera rostochiensis cysts were washed extensively in distilled water. Hatched J2s were obtained by incubating cysts in distilled water for 4 days followed by exposure to potato root diffusate (PRD).
Approximately 1000 J2s (second juvenile stage) of M. incognita or M. javanica were incubated per well of a 48-well plate with the following active enzyme concentrations (determined by E-64 titration) of papain dissolved in distilled water containing 16 mM L-cysteine (to activate the cysteine proteinase): 1.5 μM, 3 μM, 6.25 μM, 12.5 μM, 25 μM, 50 μM, 75 μM and 100 μM. Control wells contained J2s and distilled water with and without 16 mM L-cysteine, or J2s and 1 mM E-64, with and without 50 μM (active enzyme) papain, which had been preincubated for 25 mins at 40° C. Each enzyme concentration and the controls were set up in duplicate (n=2) or triplicate (n=3). The number of active J2s per well was counted prior to the addition of papain, and then the J2s were incubated in the dark at room temperature for 3 h. The number of mobile J2s per well was counted after 60, 120 and 180 mins. The nematode surfaces were examined for signs of damage using a light microscope (Zeiss Axioskop) at ×20, ×40 and ×100 magnification and photographs were taken with a Xillix Microimager. The same procedure was followed when setting up further experiments to compare the effects of 25 μM papain, 25 μM crude papaya latex (0.625 g/ml), 25 μM stem bromelain (0.18 g/ml) and 25 μM actinidin (active enzyme concentrations) with M. incognita, M. javanica or G. rostochiensis.
The data from the in vitro motility experiments were analysed using a repeated measures analysis of variance (as implemented in the GenStat procedure AREPMEASUREMENTS) to compare the overall treatment means, the overall means at each sample time, and the treatment by time interaction. Numbers of nematodes moving at each of the repeated sampling times, 60, 120 and 180 mins, were expressed as a proportion of those moving initially at time 0 (i.e. this latter number was assumed to be the actual number of nematodes initially in the dish). The proportions were transformed to logits prior to analysis. […]

In another experiment the test system is Heterorhabditis megidis. The experiment is described as follows: In vitro effect on the beneficial nematode Heterorhabditis megidis. The experiment is classed as cell-based. Here is the method: Eggs of M. incognita race 1 from North Carolina State University, USA were collected from tomato-infected roots grown in a glasshouse at 23° C. in a 16:8 h light-dark regime. Eggs were extracted using 1% hypochlorite (NaClO) solution (Hussey and Barker, 1973) or by picking egg masses from tomato-infected roots. Juveniles (J2) were hatched from the eggs and egg masses in water. Heterodera glycines eggs were obtained from soil samples stored in Rothamsted-Research. Second stage juveniles (J2) were hatched from the eggs in water after 10 days. Pratylenchus penetrans were a gift from Dr. Deeren Anne-Marie from the Institute for Agricultural and Fisheries Research, Merelbeke, Belgium. The beneficial nematodes Steinernema feltiae and Heterorhabditis megidis were a gift from Dr. Paul Williams from Becker Underwood.
Control wells were set up which contained J2s and distilled water with 16 mM L-cysteine. Each enzyme concentration and the controls were set up in duplicate (i.e. n=2). The actual number of active J2s per well was counted with the aid of an Olympus inverted microscope, prior to the addition of the enzymes, and then the J2s were incubated in the dark at room temperature for 2 hs, 16 hs, 24 hs or 40 hr. The number of live and dead J2s per well was counted after each enzyme incubation. The same procedure was followed when setting up further experiments to compare the effects of these enzymes with Heterodera glycines J2, Pratylenchus penetrans, Steinernema feltiae and Heterorhabditis megidis.
The beneficial nematodes Hetorhabditis megidis and Steinernema feltiae were incubated with dilutions of actinidin, bromelain and pappain from papaya latex (see concentrations used in table 3). These nematodes reacted differentially to these cysteine proteinases (Tables 4 and 5). […] S. feltiae were dead at all concentrations of actinidin tested. […] After 16 hs of observation the enzyme solutions were diluted with water (to half of the initial concentrations) however, no change in nematode movement was observed after 24 hs.

Entries after “also recorded” stand apart in the source; their conditions may differ.

B1: papain (protein, UniProt P00784 134-345, looked up)
Papain: IPEYVDWRQKGAVTPVKNQGSCGSCWAFSAVVTIEGIIKIRTGNLNEYSEQELLDCDRRSYGCNGGYPWSALQLVAQYGIHYRNTYPYEGVQRYCRSREKGPYAAKTDGVRQVQPYNEGALLYSIANQPVSVVLEAAGKDFQLYRGGIFVGPCGNKVDHAVAAVGYGPNYILIKNSWGTGWGENGYIRIKRGTGNSYGVCGLYTSSFYPVKN
notes: cysteine proteinase from Carica papaya, Merops C01.001, Sigma P3125
With B1, the “digestion of the cuticle of adult females (light micrographs)” value in experiment [1] (25 μM active papain, 4 h) is reported as “Digestion of the cuticle was evident”. Also, the “digestion of the cuticle of adult females” value in experiment [1] (active papain) is “digestion of the cuticle was evident”. The recovery of movement result in the experiment on M. incognita J2 is “not able to recover movement”. Further, the “proportion of active Meloidogyne spp. J2s relative to control” value in the experiment with Meloidogyne spp. J2s (25 μM active enzyme) was “Reductions in the proportion of active worms were evident”. Besides, in the experiment on Meloidogyne spp. J2s (50 μM active papain, with or without pre-incubation with 1 mM E-64), the “nematodes mobile after 180 mins” value is recorded as “None”. Also, in the experiment with Meloidogyne spp. J2s (papain 1.5-100 μM active enzyme, all doses combined, 60-180 mins, vs combined controls), the “mobility (proportion of mobile J2s) of Meloidogyne spp. J2s” value was “decreased the mobility; also recorded: decreased linearly”. In the experiment on Meloidogyne spp. J2s (papain at active enzyme concentrations of 1.5 μM and 3 μM), the “activity of Meloidogyne J2s relative to combined controls” value is “caused reductions in the activity”. The “effect on H. megidis” value in the experiment on Heterorhabditis megidis (papain 15 μM) was “not affected anymore”. Also, the “movement of H. megidis” value with Heterorhabditis megidis (papain 62.4 μM) is reported as “moving slowly”.

For the origin of these results see patent publication US20110239327A1, “Nematicidal Effects of Cysteine Proteinases and Methods of Use Thereof to Treat Nematode Infestation” (priority 2007, published 2011).
